Laboratory results as given in paper PMC11359169, “[…] CLOCK-ASSOCIATED1 Delays Flowering by Directly Inhibiting the Transcription of BcSOC1 in Pak-choi”.

Assays:
BcCCA1 = BcCCA1 (Brassica campestris (syn. Brassica …, UniProt F5B4H3 1-554)); experiment: EMSA; cold probe competition 10x, 100x, 250x; Chemiluminescent EMSA kit (Beyotime); buffer, salt, pH and temperature not stated; conditions: protein: recombinant; tags: His (pCold-His); label: biotin (5' and 3' ends per Methods); blunt
BcFLC = BcFLC (Brassica campestris (syn. Brassica …, UniProt A4L9R7 1-196)); experiment: as above; conditions: protein: recombinant; tags: GST (pGEX-4T-1); chain copies: 2; label: biotin (5' and 3' ends per Methods); blunt
BcFLC (Brassica campestris, sequence (A4L9R7 entry or part of it): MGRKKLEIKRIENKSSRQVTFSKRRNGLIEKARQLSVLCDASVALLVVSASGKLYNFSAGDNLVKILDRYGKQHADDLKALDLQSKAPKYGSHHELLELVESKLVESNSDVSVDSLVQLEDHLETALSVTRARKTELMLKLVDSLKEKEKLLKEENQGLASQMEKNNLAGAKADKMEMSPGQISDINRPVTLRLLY

BcCCA1 (Brassica campestris, sequence (F5B4H3 entry or part of it): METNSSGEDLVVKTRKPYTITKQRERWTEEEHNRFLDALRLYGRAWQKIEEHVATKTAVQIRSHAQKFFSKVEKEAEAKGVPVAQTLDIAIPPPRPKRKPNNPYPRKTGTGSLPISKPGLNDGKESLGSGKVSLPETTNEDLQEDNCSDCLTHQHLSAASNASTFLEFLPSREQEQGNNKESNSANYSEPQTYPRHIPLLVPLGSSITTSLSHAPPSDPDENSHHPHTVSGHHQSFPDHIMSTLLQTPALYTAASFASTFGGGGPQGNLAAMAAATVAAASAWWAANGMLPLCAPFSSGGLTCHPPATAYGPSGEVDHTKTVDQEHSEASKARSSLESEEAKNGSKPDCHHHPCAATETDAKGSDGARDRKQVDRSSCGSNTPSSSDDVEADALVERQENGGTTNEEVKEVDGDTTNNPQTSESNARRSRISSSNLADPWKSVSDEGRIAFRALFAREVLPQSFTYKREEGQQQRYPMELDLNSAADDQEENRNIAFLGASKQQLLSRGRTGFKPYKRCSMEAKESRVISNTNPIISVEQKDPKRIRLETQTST

B1: MBS probe (BcSOC1 promoter) (dsDNA)
DNA 1: TCCCCGTCAACGTATGTTGA
DNA 2: TCAACATACGTTGACGGGGA
binding result (BcCCA1): binds

B2: GATA probe (BcSOC1 promoter) (dsDNA)
DNA 1: GTAAAGGATGAGGTTTCAAG
DNA 2: CTTGAAACCTCATCCTTTAC
binding result (BcFLC): binds
